Target: neurokinin 1 receptor (human) (UniProt P25103)
Sequence of UniProt P25103 (P25103 whole entry): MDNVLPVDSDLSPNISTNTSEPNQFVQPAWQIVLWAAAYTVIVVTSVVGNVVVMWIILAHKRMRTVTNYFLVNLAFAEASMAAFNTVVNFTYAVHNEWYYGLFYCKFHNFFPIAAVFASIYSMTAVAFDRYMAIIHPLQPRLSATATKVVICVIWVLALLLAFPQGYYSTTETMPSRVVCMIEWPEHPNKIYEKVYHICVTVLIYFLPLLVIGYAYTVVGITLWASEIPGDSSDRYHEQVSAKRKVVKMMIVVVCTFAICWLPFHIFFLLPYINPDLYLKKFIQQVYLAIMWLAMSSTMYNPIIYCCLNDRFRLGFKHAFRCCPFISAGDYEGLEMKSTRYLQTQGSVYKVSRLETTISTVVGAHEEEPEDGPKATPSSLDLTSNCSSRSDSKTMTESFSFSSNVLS

Substance: Substance P 6-11 (peptide)
- cAMP accumulation at wild-type NK1R, potency compared to SP: 16 fold
